B1: SMTNL2 (parent)
chain: ETAAGKGKGEARARLKRSQSFGVA

Variants of: B1
Experiment: protein stability index of a GFP-peptide fusion (GPS, HEK-293T) (PSI 1-6); higher = more stable
Conditions: c terminus: a fixed tail appended
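Also: lentivirally expressed fusions sorted by FACS into six bins by GFP to DsRed ratio, PSI derived from sequencing read proportions per bin multiplied by bin number.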

Protein stability index, by site and new letter:
R17: D 4.31; E 4.65; Q 4.67; T 4.17; V 3.59; H 4.54; A 4.14; W 2.95; I 3.82; L 3.76; S 4.18; Y 3.81; K 4.6; N 4.54; C 3.62; F 3.19; P 3.23; G 4.24; M 4.09
K16: V 3.9; T 4.39; W 2.59; Y 3.74
V23: H 5.02; I 4.39; W 3.96; P 4.62; E 5.35; T 4.75; G 5.23; M 4.84; A 5.1; L 3.68; S 5.17; C 4.83; K 4.95; R 4.89; F 3.98; Q 4.94; N 4.68; D 4.84; Y 4.11
F21: A 5.25; M 4.3; S 5.07; E 5.45; L 5.02; H 4.96; P 5.12; W 3.22; K 5.23; T 5.16; R 4.23; C 5.02; D 5.51; I 5.28; G 4.08; Y 4.65; V 5.25; N 5; Q 5.2
A24: M 4.29; Y 3.72; K 4.41; R 4.52; C 4.28; W 3.57; N 5.09; F 3.97; Q 4.51; T 4.23; G 4.6; L 4.49; H 4.27; V 4.01; I 3.75; E 4.71; P 4.88; S 4.65; D 4.9
Q19: F 3.67; N 4.89; K 4.46; T 4.68; P 4.45; I 3.27; Y 3.89; R 4.3; L 4.08; E 5.15; V 3.96; A 4.35; M 4.18; C 4.09; S 3.19; H 4.81; D 4.61; W 4.33; G 4.38
S20: Y 3.98; G 3.76; A 4.56; I 3.5; E 4.87; Q 4.08; P 4.27; K 4.69; F 4.09; N 4.3; R 4.09; C 4.51; H 4.26; W 3.02; D 4.58; T 4.77; L 4.02; M 4.3; V 4.27
S18: R 4.26; W 3.64; V 3.94; F 3.65; N 4.5; P 4.01; L 3.49; C 3.81; E 4.36; G 4.6; I 3.52; K 4.43; H 4.02; T 4.22; Y 2.89; A 4.22; M 3.69; D 4.46; Q 4.43
G22: T 4.31; F 2.84; I 3.9; L 4.1; W 2.81; V 4.32; P 5.71; C 4.84; N 4.76; D 5.1; Q 4.36; R 4.28; K 4.81; A 4.2; S 5.13; E 5.65; H 4.14; M 3.86; Y 3.84

— the supplement of paper PMC10567573
